This is an account of results in KR20230171885A (dated 2023).

By Kd is commonly meant a measure of binding affinity in units of concentration. A word on the koff: it is the rate constant with which the complex falls apart. What is called kon is the second-order rate constant of association.

The test has as its target T1, 재조합 인간 TIGIT 단백질 (Acro Biosystems) (human, UniProt Q495A1 22-141).
T1 construct: Bought recombinant protein; also called recombinant human TIGIT; TIGIT 항원
T1 sequence: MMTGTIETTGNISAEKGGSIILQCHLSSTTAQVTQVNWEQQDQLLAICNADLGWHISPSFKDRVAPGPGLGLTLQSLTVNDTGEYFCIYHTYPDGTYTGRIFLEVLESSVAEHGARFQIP
The test is described as follows: SPR, Biacore T200 multi-cycle kinetics, 25C; antibody captured on anti-human IgG CM5 chip, recombinant human TIGIT as analyte; 1:1 model. In general terms: SPR reads the build-up and loss of mass on a sensor chip optically.

B1: 항-TIGIT 항체 7A6 (7A6_VH3/Vk5) (antibody, human IgG1, kappa, V domains shown)
VH: QVQLQESGPGLVKPSQTLSLTCTVTGYSITSDYAWNWIRQPPGKGLEWMGYISYSGSARYNPSLKSRVTISRDTSKNQFSLKLSSVTAEDTATYYCARKGYPAYFAYWGQGTLVTVSS
VL: DIQMTQSPSSLSASVGDRVSITCKASQDVSTAVAWYQQKPGQAPRLLIYSASYRYTGVPDRFSGSGSGTDFTLTISSLQPEDFATYYCQHHYSTPYTFGQGTKLEIKR
notes: Parental IgG1/kappa antibody without RS15; also called 7A6 VH3/Vκ5; Parental Ab (7A6)
With B1, the Kd was 0.884 nM, the koff worked out at 0.00158 s⁻¹ and the kon was determined as 1.78e+06 M⁻¹ s⁻¹.
